In patent publication US20250051409A1, “MODULATORS OF PHOSPHATIDYLSERlNE DECARBOXYLASE AND USE THEREOF” (THE NATIONAL INSTITUTE FOR BIOTECHNOLOGY IN THE NEGEV LTD., priority 2021, published 2025) one finds Kd and IC50 data, which are given here for 1 molecule.

The target in assay [1] is T1, phosphatidylserine decarboxylase (PSD) (Homo sapiens, UniProt Q9UG56).
T1 construct: Purified recombinant protein (full length) of human phosphatidylserine decarboxylase (PSD); His tag (N); purchased Acris-OriGene; host or cells: E. coli
T1 sequence (Q9UG56 53-409): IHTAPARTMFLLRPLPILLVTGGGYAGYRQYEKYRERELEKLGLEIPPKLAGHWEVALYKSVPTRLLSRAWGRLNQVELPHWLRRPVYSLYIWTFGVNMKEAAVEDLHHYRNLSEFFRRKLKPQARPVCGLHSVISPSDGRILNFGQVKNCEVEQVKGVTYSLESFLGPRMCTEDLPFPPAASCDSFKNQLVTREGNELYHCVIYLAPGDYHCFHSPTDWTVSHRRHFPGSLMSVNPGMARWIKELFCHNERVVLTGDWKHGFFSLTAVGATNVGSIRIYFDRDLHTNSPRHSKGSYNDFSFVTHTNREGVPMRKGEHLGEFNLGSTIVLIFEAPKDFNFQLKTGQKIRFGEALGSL
Description: MST interaction of purified SMAC with purified PSD. In kind it is binding. Conditions: SMAC 1 μM, PSD 78-625 nM, 30 min at 37° C., read-out: dissociation constant (Kd) of PSD interaction with SMAC. As for the experimental part:
(A) Representative IF images for SMAC and PSD colocalization in A549 cells. Scale bars represent 10, 2.5 μm, as indicated. (B) PLA assay showing direct interaction between SMAC and PSD in A549 cells (scale bar represent 10 μm). Immunoblot (C) and quantitative analysis cells (D) of PSD and SMAC expression levels relative to WI-38 (n=3). PSD activity (n=6) (E) and PE levels (n=6) (F) were analyzed in the indicated cell lines. (G) Purified PSD and SMAC used in this study. (H) PSD interaction with SMAC analyzed using the MST method (n=4). Purified SMAC was fluorescently labelled with the NanoTemper BLUE protein-labelling kit. SMAC (1 μM) was incubated with purified PISD (78-625 nM) for 30 min at 37° C., then thermophoresis was measured as described in the Materials and Methods section hereinbelow. […] (I) Inhibition of PSD activity by SMAC, as measured using the DSB-3 method (n=4). Results are the mean±SEM. *P≤0.05; **P≤0.01; ***P≤0.001; NS, nonsignificant.
(§1) Human recombinant SMAC (10339-H08E) was produced by Sino Biologicals (Wayne, PA, USA). […]
MST analysis was performed using a NanoTemper Monolith NT.115 apparatus as described earlier (Wienken C J, et al., 2010. Nat Commun 1, 100). […] After a 30-min incubation, 8 μl of the samples were loaded into a glass capillary (Monolith NT Capillaries), and thermophoresis was analyzed (LED 20%, IR laser 20%).

The target in assay [2] is T1, phosphatidylserine decarboxylase (PSD). Description: PSD activity inhibition, DSB-3 method. It is filed as biochemical. Conditions: read-out: IC50 of SMAC inhibiting PSD activity. Here is the method: PE content in the lipid samples was measured as described previously (Choi J Y, et al. 2018. J Biol Chem 293, 1493-1503). Briefly, solvent was evaporated from the lipid samples under nitrogen gas, and samples were re-suspended in 0.8 mM Triton X-100. Sample aliquots were added to 96-well plates containing (50 μl) reaction mixture (80 mM NaCl, 2 mM K2HPO4, pH 7.4), and borate buffer (12.5 μl) (100 mM boric acid, 75 mM NaCl, 25 mM sodium tetraborate, pH 9). After mixing, 12.5 μl of 100 μM DSB-3, in 10 mM K2HPO4 (pH 7.4), were added and incubated for 2 h in the dark with shaking (100 rpm). Fluorescence was measured using excitation λex=403 nm and emission λem=508 nm. A calibration curve was obtained using PE (Biovision, CA) as a standard.
To determine PSD activity, purified enzyme (0.2-0.4 μM) or crude cell lysate (0.25-0.5 μg of protein) was incubated with PS (50 μM) for 45 min at 30° C. in the dark with shaking under the conditions described above for PE determination. PSD activity was measured by determining the PE produced as described above, except that the signal obtained in the absence of substrate PS (representing endogenous PE) was subtracted from the signal obtained in the presence of PS.
as §1

B1: SMAC: Human recombinant SMAC (10339-H08E) produced by Sino Biologicals (protein)
chain: AVPIAQKSEPHSLSSEALMRRAVSLVTDSTSTFLSQTTYALIEAITEYTKAVYTLTSLYRQYTSLLGKMNSEEEDEVWQVIIGARAEMTSKHQEYLKLETTWMTAVGLSEMAAEAAYQTGADQASITARNHIQLVKLQVEEVHQLSRKAETKLAEAQIEELRQKTQEEGEERAESEQEAYLRED
Broadly, the Kd is the free concentration of one partner at which half of the binding sites on the other are occupied at equilibrium, for simple one-to-one binding. In general, IC50 refers to the midpoint of a concentration-inhibition curve. With B1, the Kd in assay [1] amounted to 246 nM. In assay [2], the half-inhibitory concentration (IC50) amounted to 400 nM.
